Data taken from US20100086552A1 (VALTION TEKNILLINEN TUTKIMUSKESKUS, published 2010).

T1: native bovine milk β-lactoglobulin (nBLG, Sigma) (bovine, UniProt P02754 17-178, biotinylated where immobilised on streptavidin wells or chips; the soluble competitor and the crystallised protein are not biotinylated)
T1 construct: also called native BLG; β-lactoglobulin AB dimer
T1 sequence: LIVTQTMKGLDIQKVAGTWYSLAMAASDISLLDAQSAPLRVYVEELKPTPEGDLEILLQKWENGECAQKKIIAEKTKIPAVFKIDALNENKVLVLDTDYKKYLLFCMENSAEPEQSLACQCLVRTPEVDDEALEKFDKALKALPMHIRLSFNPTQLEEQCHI

T2: rBLG-His6 (recombinant bovine β-lactoglobulin with C-terminal His6 tag) (bovine, UniProt P02754 17-178, biotinylated with Sulfo-NHS-LC-biotin (2 mol biotin : 1 mol protein) for immobilisation)
T2 construct: It was secreted to the E. coli periplasm through a pelB signal that is not part of the entry; also called recombinant BLG
T2 chain: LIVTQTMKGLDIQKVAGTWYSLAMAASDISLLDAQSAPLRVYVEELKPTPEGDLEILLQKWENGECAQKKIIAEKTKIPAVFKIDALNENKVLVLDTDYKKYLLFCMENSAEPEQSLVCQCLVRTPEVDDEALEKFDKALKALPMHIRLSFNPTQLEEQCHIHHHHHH

T3: rBLG-His6 T18Y (bovine, UniProt P02754 17-178, biotinylated with Sulfo-NHS-LC-biotin (2 mol biotin : 1 mol protein) for immobilisation)
T3 chain: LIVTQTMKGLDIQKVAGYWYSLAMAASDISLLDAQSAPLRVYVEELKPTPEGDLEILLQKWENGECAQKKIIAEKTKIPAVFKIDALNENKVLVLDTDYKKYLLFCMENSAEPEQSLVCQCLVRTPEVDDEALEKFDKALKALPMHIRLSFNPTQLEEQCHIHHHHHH

T4: rBLG-His6 T18Y/E45Y/L57Y (bovine, UniProt P02754 17-178, biotinylated with Sulfo-NHS-LC-biotin (2 mol biotin : 1 mol protein) for immobilisation)
T4 construct: also called Triple mutant; Triple
T4 chain: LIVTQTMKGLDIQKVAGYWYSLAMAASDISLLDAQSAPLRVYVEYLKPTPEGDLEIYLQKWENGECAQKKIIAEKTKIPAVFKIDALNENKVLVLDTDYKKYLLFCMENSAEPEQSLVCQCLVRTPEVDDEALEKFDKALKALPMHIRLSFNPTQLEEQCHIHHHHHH


Tests used:
[1] = target: T1, native bovine milk β-lactoglobulin …; experiment: BIAcore SPR, biotinylated nBLG on streptavidin chip, D1 IgE Fab as analyte (1.1-138.9 nM)
Procedure: (§1) BIAcore analysis of the nBLG, rBLG-His6 and its mutants.
(§2) The biotinylated BLGs were immobilised in HBS buffer (10 mM Hepes, 0.15M NaCl, 3.4 mM EDTA, 0.005% BIAcore P20 surfactant, pH 7.4) and at a concentration of 1 μg/ml onto the streptavidin biosensor chip resulting in a surface of approximately 400-500 RU. The biotinylated nBLG was immobilised only with 200 RU onto the surface of the SA-chip.

[2] = target: T2, rBLG-His6 (recombinant bovine …); experiment: BIAcore SPR, biotinylated rBLG-His6 on streptavidin chip, D1 IgE Fab as analyte (1.1-138.9 nM)
Procedure: as §1, §2

[3] = target: T3, rBLG-His6 T18Y; experiment: BIAcore SPR, biotinylated rBLG-His6 T18Y on streptavidin chip, D1 IgE Fab as analyte (1.1-138.9 nM)
Procedure: as §1, §2

[4] = target: T5, bsa (Bos taurus (bovine), UniProt P02769); experiment: ELISA: D1 IgE Fab on wells with bovine serum albumin, AFOS-conjugated goat anti-human kappa antibody, A405 after 20 min
T5 construct: also called bovine serum albumin
Procedure: (§3) Biotinylated nBLG, rBLG-His6 or its mutants were immobilised on to the SA-microtitre wells.
(§4) After a 1-h incubation the wells were washed three times with PBS. The detection of the BLGs was carried out using AFOS-conjugated goat anti-human kappa antibody (Southern Biotech). Then p-nitrophenylphosphate substrate (Sigma) was added to the wells (2 mg/ml in diethanolamine buffer).

[5] = target: T4, rBLG-His6 T18Y/E45Y/L57Y; experiment: ELISA: 1 µg biotinylated BLG on streptavidin wells, D1 IgE Fab, AFOS-conjugated goat anti-human kappa antibody, A405 after 20 min
Procedure: as §3, §4

[6] = target: T1, native bovine milk β-lactoglobulin …; experiment: competitive ELISA: biotinylated BLG AB dimer on streptavidin wells, KRVG peptide incubated with the immobilised BLG, wells washed or not washed, then D1 IgE Fab (the blocked ligand); AFOS-conjugated goat anti-human kappa antibody, A405
Procedure: In competitive ELISA the biotinylated AB dimer of BLG was immobilised onto streptavidin-coated microtitre wells. First the peptide (an inhibitor) was dissolved into 0.5% BSA-PBS and then different amounts of it were incubated with the immobilised BLG. After that the wells were either washed trice with PBS or not. […] The bound antibody was detected with AFOS-conjugated goat anti-human kappa antibody.

T5 sequence (P02769 25-607 limits assumed): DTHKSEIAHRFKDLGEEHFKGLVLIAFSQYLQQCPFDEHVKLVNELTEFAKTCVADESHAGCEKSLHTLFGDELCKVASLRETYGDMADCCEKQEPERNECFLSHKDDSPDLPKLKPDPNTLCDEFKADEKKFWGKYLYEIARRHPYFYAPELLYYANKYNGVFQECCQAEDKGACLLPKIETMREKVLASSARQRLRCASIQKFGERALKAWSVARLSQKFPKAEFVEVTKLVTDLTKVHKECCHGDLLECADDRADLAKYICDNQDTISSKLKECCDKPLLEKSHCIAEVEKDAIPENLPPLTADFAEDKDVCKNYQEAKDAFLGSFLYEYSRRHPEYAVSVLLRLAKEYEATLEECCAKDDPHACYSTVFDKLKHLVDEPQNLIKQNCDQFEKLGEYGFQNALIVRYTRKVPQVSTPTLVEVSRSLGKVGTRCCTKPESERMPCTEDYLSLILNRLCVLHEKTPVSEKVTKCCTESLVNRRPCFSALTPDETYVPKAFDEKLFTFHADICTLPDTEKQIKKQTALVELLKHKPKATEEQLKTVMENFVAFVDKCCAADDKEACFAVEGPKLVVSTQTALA

Binder	Ka [1] [M⁻¹]	Kd [1] [nM]	koff [1] [s⁻¹]	kon [1] [M⁻¹ s⁻¹]	Ka [2] [M⁻¹]	Kd [2] [nM]	koff [2] [s⁻¹]	kon [2] [M⁻¹ s⁻¹]	Ka [3] [M⁻¹]	Kd [3] [nM]	koff [3] [s⁻¹]	kon [3] [M⁻¹ s⁻¹]	binding result [4]	binding result [5]	binding result [6]
D1 IgE Fab (human anti-β-lactoglobulin Fab fragment with human IgG1 subtype, derived from the D1 scFv of a human IgE scFv phage library) (Fab, V domains shown, it was made in E. coli RV308 and purified on nickel; also called D1/Fab; Fab/D1) VH: QVSLRESGGGLVQPGRSLRLSCTASGFTFRHHGMTWVRQAPGKGLEWVASLSGSGTKTHFADSVKGRFTISRDNSNNTLYLQMDNVRDEDTAIYYCAKAKRVGATGYFDLWGRGTLVTVSS VL: DIVMTQSPSSLSASVGDRVTITCRASQGISSRLAWYQQKPGKAPKLLIYAASSLQSGVPSRFSGSGSGTEFTLTISSLQPEDFATYYCQQYHSYPWTFGQGTKVEIKR	3.7e+08	2.7	0.0048	1.8e+06	1.2e+08	8.5	0.0082	961000	1.6e+06	610	0.082	130000	no binding (tested: 1:15000 dilution of 1.6 mg/ml)	no binding (tested: 1:15000 dilution of 1.6 mg/ml)	–
KRVG [peptide KRVG (from the HCDR3 of D1 IgE Fab)]	–	–	–	–	–	–	–	–	–	–	–	–	–	–	binds
